Data from patent US20220024991A1 (GENOME PROTECTION, published 2022).

Target: human TLR5 (293-hTLR5-LacZ reporter cells) (human, UniProt O60602 21-858)
Experiment: cell-based or functional assay

Sequence of human TLR5 (293-hTLR5-LacZ reporter cells) (O60602 21-858): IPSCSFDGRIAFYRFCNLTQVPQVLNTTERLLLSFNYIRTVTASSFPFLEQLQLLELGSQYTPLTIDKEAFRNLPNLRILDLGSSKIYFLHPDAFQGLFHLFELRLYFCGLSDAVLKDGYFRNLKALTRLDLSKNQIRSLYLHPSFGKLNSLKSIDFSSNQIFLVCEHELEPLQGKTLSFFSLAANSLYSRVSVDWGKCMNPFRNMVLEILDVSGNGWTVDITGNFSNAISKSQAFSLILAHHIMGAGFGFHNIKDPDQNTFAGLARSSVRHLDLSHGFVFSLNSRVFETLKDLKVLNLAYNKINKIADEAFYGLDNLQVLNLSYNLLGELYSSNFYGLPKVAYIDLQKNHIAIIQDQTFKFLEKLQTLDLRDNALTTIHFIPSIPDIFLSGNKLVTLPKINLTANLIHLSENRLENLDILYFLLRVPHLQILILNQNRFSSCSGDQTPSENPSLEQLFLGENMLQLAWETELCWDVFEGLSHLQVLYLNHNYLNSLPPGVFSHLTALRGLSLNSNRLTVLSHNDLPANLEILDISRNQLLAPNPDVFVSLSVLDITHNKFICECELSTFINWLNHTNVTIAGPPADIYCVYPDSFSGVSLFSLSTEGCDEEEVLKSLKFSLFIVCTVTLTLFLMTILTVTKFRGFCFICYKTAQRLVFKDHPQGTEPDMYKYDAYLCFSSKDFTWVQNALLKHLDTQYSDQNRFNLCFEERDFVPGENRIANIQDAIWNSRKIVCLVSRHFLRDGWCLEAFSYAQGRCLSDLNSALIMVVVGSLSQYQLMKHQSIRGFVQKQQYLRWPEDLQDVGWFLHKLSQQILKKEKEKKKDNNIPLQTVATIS

B1: entolimod/CBLB502 (ligand)
chain: not shown
EC50, ng/ml (NF-κB reporter enzyme activity): 0.032 ng/mL
EC50, pM (NF-κB reporter enzyme activity): 0.92 pM
